Measurements from patent US20230265151A1, “GIP/GLP1 CO-AGONIST COMPOUNDS” (priority 2020, published 2023).
Numbering of substitutions follows the chain as printed.

B1: Example 222 (peptide)
peptide: YXEGTXTSDXSIXLDXIAQXKFIXXLIKGGPSSGAPPPS
modifications: Aib2, αMeF(2F)6, 4Pal10, αMeL13, Orn16, Aib20, K21(Z), D-Glu24, αMeY25, K28(Z), C-terminal NH2; Z = AEEA2-CO-(CH2)12-CO2H
B2: Example 262 (peptide)
peptide: B1 peptide with K21E, X24K
modifications: Aib2, αMeF(2F)6, OMeY10, αMeL13, Orn16, Aib20, K24(Z), αMeY25, K28(Z), C-terminal NH2; Z = AEEA2-(γ-Glu)-CO-(CH2)12-CO2H
B3: Example 226 (peptide)
peptide: B1 peptide with K21E, X24K
modifications: Aib2, αMeF(2F)6, 4Pal10, αMeL13, Orn16, Aib20, K24(Z), αMeY25, K28(Z), C-terminal NH2; Z = AEEA3-(γ-Glu)-CO-(CH2)12-CO2H
B4: Example 253 (peptide)
peptide: B1 peptide
modifications: Aib2, αMeF(2F)6, 2Nal10, αMeL13, Orn16, Aib20, K21(Z), D-Glu24, αMeY25, K28(Z), C-terminal NH2; Z = AEEA2-(γ-Glu)-CO-(CH2)12-CO2H
B5: Example 270 (peptide)
peptide: B1 peptide with K21E, X24K
modifications: Aib2, αMeF(2F)6, hTyr10, αMeL13, Orn16, Aib20, K24(Z), αMeY25, K28(Z), C-terminal NH2; Z = AEEA2-(γ-Glu)-CO-(CH2)12-CO2H
B6: Example 252 (peptide)
peptide: B1 peptide with K21E, X24K
modifications: Aib2, αMeF(2F)6, 2Nal10, αMeL13, Orn16, Aib20, K24(Z), αMeY25, K28(Z), C-terminal NH2; Z = AEEA2-(γ-Glu)-CO-(CH2)12-CO2H
B7: Example 263 (peptide)
peptide: B1 peptide
modifications: Aib2, αMeF(2F)6, OMeY10, αMeL13, Orn16, Aib20, K21(Z), D-Glu24, αMeY25, K28(Z), C-terminal NH2; Z = AEEA2-(γ-Glu)-CO-(CH2)12-CO2H
B8: Example 227 (peptide)
peptide: B1 peptide
modifications: Aib2, αMeF(2F)6, 4Pal10, αMeL13, Orn16, Aib20, K21(Z), D-Glu24, αMeY25, K28(Z), C-terminal NH2; Z = AEEA3-(γ-Glu)-CO-(CH2)12-CO2H
B9: Example 221 (peptide)
peptide: YXEGTXTSDXSIXLDXKAQXEFIXXLIEGGPSSGAPPPSK
modifications: Aib2, αMeF(2F)6, 4Pal10, αMeL13, Orn16, K17(Z), Aib20, D-Glu24, αMeY25, K40(Z), C-terminal NH2; Z = AEEA2-CO-(CH2)12-CO2H
B10: Example 228 (peptide)
peptide: B9 peptide with K17I, E21K
modifications: Aib2, αMeF(2F)6, 4Pal10, αMeL13, Orn16, Aib20, K21(Z), D-Glu24, αMeY25, K40(Z), C-terminal NH2; Z = AEEA3-(γ-Glu)-CO-(CH2)12-CO2H
B11: Example 267 (peptide)
peptide: B9 peptide
modifications: Aib2, αMeF(2F)6, OMeY10, αMeL13, Orn16, K17(Z), Aib20, D-Glu24, αMeY25, K40(Z), C-terminal NH2; Z = AEEA2-CO-(CH2)12-CO2H
B12: Example 258 (peptide)
peptide: B9 peptide with K17I, E21K
modifications: Aib2, αMeF(2F)6, 2Nal10, αMeL13, Orn16, Aib20, K21(Z), D-Glu24, αMeY25, K40(Z), C-terminal NH2; Z = AEEA2-CO-(CH2)12-CO2H
B13: Example 264 (peptide)
peptide: B9 peptide with K17I, E21K
modifications: Aib2, αMeF(2F)6, OMeY10, αMeL13, Orn16, Aib20, K21(Z), D-Glu24, αMeY25, K40(Z), C-terminal NH2; Z = AEEA2-(γ-Glu)-CO-(CH2)12-CO2H
B14: Example 251 (peptide)
peptide: B9 peptide
modifications: Aib2, αMeF(2F)6, 2Nal10, αMeL13, Orn16, K17(Z), Aib20, D-Glu24, αMeY25, K40(Z), C-terminal NH2; Z = AEEA2-(γ-Glu)-CO-(CH2)12-CO2H
B15: Example 268 (peptide)
peptide: B9 peptide with K17I, E21K
modifications: Aib2, αMeF(2F)6, OMeY10, αMeL13, Orn16, Aib20, K21(Z), D-Glu24, αMeY25, K40(Z), C-terminal NH2; Z = AEEA2-CO-(CH2)12-CO2H
B16: Example 254 (peptide)
peptide: B9 peptide with K17I, E21K
modifications: Aib2, αMeF(2F)6, 2Nal10, αMeL13, Orn16, Aib20, K21(Z), D-Glu24, αMeY25, K40(Z), C-terminal NH2; Z = AEEA2-(γ-Glu)-CO-(CH2)12-CO2H

Molecular target: human glucagon receptor (human, UniProt P47871 26-477)
Experiment: cell-based or functional assay

Binder	cAMP EC50
B1	> 9950 nM
B2	> 9950 nM
B3	> 9950 nM
B4	> 9950 nM
B5	> 9950 nM
B6	> 9950 nM
B7	> 9950 nM
B8	> 9950 nM
B9	> 9950 nM
B10	> 9950 nM
B11	> 9950 nM
B12	> 9950 nM
B13	> 9950 nM
B14	> 9950 nM
B15	> 9950 nM
B16	> 9950 nM

Molecular target: human glucagon-like peptide-1 (GLP-1) receptor (human, UniProt P43220 24-463)
Experiment: cell-based or functional assay

Binder	cAMP EC50	cAMP Emax
B1	0.518 nM	
B2	0.472 nM	
B3	0.611 nM	
B4	0.43 nM	
B5	0.551 nM	
B6	0.555 nM	
B7	0.294 nM	
B8	1.22 nM	
B9	1.83 nM	83%
B10	1.34 nM	91.1%
B11	0.271 nM	
B12	0.653 nM	
B13	0.413 nM	
B14	0.338 nM	
B15	0.613 nM	
B16	0.507 nM	

Molecular target: T1, human glucose-dependent insulinotropic polypeptide (GIP) receptor (human, UniProt P48546 22-466)
T1 sequence (looked up): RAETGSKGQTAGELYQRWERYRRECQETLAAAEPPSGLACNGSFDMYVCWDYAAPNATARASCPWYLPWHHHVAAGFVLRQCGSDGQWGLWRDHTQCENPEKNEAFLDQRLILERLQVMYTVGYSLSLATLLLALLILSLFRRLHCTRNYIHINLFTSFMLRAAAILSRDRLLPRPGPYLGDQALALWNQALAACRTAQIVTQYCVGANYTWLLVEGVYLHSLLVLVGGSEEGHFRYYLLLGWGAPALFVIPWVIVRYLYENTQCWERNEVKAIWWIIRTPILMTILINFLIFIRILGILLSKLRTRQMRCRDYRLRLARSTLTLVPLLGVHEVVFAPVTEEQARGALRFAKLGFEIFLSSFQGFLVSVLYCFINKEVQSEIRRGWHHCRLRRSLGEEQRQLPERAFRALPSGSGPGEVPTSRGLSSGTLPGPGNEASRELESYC
Experiment: cell-based or functional assay

Binder	cAMP EC50	cAMP Emax
B1	0.0195 nM	
B2	0.0327 nM	
B3	0.0232 nM	
B4	0.0295 nM	
B5	0.0567 nM	
B6	0.049 nM	
B7	0.0214 nM	88.6%
B8	0.0224 nM	
B9	0.0279 nM	
B10	0.0232 nM	
B11	0.0162 nM	
B12	0.0473 nM	90.3%
B13	0.0208 nM	114%
B14	0.0305 nM	
B15	0.0265 nM	
B16	0.0273 nM	
